{"source": "patent US20060270591A1", "about": "“Androgen receptor coregulators” (priority 2002, published 2006)", "key": {"[1]": {"target": "T1, PR (Homo sapiens, UniProt P06401)", "T1 construct": "expressed in transfected cells; host or cells: DU145, PC-3", "T1 sequence (P06401 1-933)": "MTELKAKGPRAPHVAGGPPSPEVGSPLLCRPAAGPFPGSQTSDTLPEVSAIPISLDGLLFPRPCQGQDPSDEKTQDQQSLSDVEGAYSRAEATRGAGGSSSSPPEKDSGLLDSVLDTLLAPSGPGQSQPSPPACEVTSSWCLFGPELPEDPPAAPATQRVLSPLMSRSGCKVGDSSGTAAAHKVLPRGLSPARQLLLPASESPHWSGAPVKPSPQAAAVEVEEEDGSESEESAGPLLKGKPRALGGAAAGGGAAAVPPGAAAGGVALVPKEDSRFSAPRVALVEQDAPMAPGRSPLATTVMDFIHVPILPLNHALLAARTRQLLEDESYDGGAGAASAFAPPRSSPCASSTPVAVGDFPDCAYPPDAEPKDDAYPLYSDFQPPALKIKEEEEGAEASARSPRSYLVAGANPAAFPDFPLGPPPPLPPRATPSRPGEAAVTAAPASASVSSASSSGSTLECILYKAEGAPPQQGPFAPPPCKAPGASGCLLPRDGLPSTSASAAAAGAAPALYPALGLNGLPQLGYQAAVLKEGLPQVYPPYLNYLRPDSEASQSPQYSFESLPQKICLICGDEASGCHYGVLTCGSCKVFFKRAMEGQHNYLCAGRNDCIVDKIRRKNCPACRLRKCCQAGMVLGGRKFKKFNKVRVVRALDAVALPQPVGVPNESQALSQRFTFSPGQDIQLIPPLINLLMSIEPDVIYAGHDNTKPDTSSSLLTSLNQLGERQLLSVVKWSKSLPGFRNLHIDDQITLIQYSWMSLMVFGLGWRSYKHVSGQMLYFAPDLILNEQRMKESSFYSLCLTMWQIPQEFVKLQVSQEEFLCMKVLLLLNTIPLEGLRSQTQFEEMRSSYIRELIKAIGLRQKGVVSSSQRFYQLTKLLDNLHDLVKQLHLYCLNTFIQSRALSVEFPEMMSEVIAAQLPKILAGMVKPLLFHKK", "details": "previous studies; cited from earlier work"}, "[2]": {"target": "T2, GR (Homo sapiens, UniProt P04150)", "T2 sequence (P04150 1-777)": "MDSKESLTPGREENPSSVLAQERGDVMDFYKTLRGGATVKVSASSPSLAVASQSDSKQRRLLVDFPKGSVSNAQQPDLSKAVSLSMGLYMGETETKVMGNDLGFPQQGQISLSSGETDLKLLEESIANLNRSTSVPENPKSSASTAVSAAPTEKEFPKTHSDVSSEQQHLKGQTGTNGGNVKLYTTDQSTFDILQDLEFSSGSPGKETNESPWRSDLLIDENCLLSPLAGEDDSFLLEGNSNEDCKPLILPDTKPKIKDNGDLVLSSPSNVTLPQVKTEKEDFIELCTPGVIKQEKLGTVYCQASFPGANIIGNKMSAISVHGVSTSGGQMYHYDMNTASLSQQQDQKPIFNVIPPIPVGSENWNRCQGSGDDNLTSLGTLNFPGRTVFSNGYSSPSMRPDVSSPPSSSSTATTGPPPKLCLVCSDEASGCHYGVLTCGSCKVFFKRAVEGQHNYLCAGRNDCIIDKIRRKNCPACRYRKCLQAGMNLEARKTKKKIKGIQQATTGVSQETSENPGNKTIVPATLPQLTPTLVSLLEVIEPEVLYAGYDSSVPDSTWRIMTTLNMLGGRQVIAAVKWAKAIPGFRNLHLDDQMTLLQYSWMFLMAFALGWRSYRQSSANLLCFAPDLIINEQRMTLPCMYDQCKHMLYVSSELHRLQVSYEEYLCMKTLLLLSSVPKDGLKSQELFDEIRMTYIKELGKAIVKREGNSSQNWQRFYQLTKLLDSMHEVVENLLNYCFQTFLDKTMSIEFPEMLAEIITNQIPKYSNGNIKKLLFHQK", "assay": "GR transcription activity, MMTV-CAT reporter (Example 1)", "assay_type": "cell-based", "design": "expressed in transfected cells; host or cells: DU145", "details": "DU145 cells", "procedure": "366. Human prostate cancer DU145 or PC3 cells, or human lung carcinoma cells NCI H1299 were grown in Dulbecco's minimal essential medium (DMEM) containing penicillin (25 U/ml), streptomycin (25˜g/ml), and 5% fetal calf serum (FCS). One hour before transfection, the medium was changed to DMEM with 5% charcoal-stripped FCS. Phenol red-free and serum-free media were used on the experiments employing E2 or TGF-β, respectively. A β-galactosidase expression plasmid, pCMV-β-gal, was used as an internal control for transfection efficiency.\n367. Cells were transfected using the calcium phosphate technique (Yeh, et al. Molec. Endocrinol. 8:77-88, 1994). The medium was changed 24 hr posttransfection and the cells treated with either steroid hormones or hydroxyflutamide, and cultured for an additional 24 hr. Cells were harvested and assayed for CAT activity after the cell lysates were normalized by using β-galactosidaseas an internal control. Chloramphenicol acetyltransferase (CA) activity was visualized by PhosphorImager (Molecular Dynamics) and quantitated by ImageQuant software (Molecular Dynamics)."}}, "data": [{"molecule": "ARA54: 54 kDa protein that interacts with AR in an androgen-dependent manner; AR coactivator (protein) MSSEDREAQEDELLALASIYDGDEFRKAESVQGGETRIYLDLPQNFKIFVSGNSNECLQNSGFEYTICFLPPLVLNFELPPDYPSSSPPSFTLSGKWLSPTQLSALCKHLDNLWEEHRGSVVLFAWMQFLKEETLAYLNIVSPFELKIGSQKKVQRRTAQASPNTELDFGGAAGSDVDQEEIVDERAVQDVESLSNLIQEILDFDQAQQIKCFNSKLFLCSICFCEKLGSECMYFLECRHVYCKACLKDYFEIQIRDGQVQCLNCPEPKCPSVATPGQVKELVEAELFARYDRLLLQSSLDLMADVVYCPRPCCQLPVMQEPGCTMGICSSCNFAFCTLCRLTYHGVSPCKVTAEKLMDLRNEYLQADEANKRLLDQRYGKRVIQKALEEMESKEWLEKNSKSCPCCGTPIEKLDGCNKMTCTGCMQYFCWICMGSLSRANPYKHFNDPGSPCFNRLFYAVDVDDDIWEDEVED", "values": [{"measurement": "enhancement of the transcription activity of PR", "setting": "[1]", "value": "up to 4 fold"}, {"measurement": "effect on GR transcription activity", "setting": "[2]", "value": "less than 2 fold"}]}]}
